Numbering of substitutions follows the chain as printed. “Also recorded” adds a separate entry of the source. Read-outs that look alike come from different tables or passages of the source.
B1: B3-TMP: SerpinB3 variant with RCL residues 350 to 354 (P4 to P1′) replaced by IQFRV to inhibit TMPRSS2; SEQ ID No. 6 (protein)
chain: MNSLSEANTKFMFDLFQQFRKSKENNIFYSPISITSALGMVLLGAKDNTAQQIKKVLHFDQVTENTTGKAATYHVDRSGNVHHQFQKLLTEFNKSTDAYELKIANKLFGEKTYLFLQEYLDAIKKFYQTSVESVDFANAPEESRKKINSWVESQTNEKIKNLIPEGNIGSNTTLVLVNAIYFKGQWEKKFNKEDTKEEKFWPNKNTYKSIQMMRQYTSFHFASLEDVQAKVLEIPYKGKDLSMIVLLPNEIDGLQKLEEKLTAEKLMEWTSLQNMRETRVDLHLPRFKVEESYDLKDTLRTMGMVDIFNGDADLSGMTGSRGLVLSGVLHKAFVEVTEEGAEAAAATAVIQFRVSPTSTNEEFHCNHPFLFFIRQNKTNSILFYGRFSSP
B2: B3-WT: Wild type recombinant SerpinB3 (SCCA-1), 44.5 kDa cross-class inhibitor of cysteine proteases including CatL; SEQ ID No. 5 (protein, listed as Homo sapiens)
chain: B1 chain with I350V, Q351G, R353G, V354S

How the values were obtained:
Omicron BA.5 SARS-CoV-2 = type: cell-based
Cathepsin L (CatL) = target: T1, Cathepsin L (CatL) (Homo sapiens, UniProt P07711); experiment: Protease inhibition assay, fluorogenic substrate cleavage, cathepsin L; type: biochemical; settings: excess of serpin over protease, 2 min incubation, substrate Z-FR-AMC
T1 construct: gift: Dr Matej Vizovišek, Jozef Stefan Institute, Slovenia
T1 sequence (P07711 114-333): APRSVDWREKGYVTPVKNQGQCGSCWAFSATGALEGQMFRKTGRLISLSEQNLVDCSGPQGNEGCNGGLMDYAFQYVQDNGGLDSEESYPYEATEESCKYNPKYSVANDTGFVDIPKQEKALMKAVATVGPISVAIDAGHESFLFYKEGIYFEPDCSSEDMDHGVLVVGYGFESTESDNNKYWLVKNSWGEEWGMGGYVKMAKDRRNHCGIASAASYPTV
Procedure: By monitoring the linear rate of cleavage of fluorogenic substrates, protease specificity of purified proteins was assessed. CatL was gifted by Dr Matej Vizovišek, Jozef Stefan Institute, Slovenia. TMPRSS2 was obtained from Cusabio Technology and furin from BioLegend.
Proteases were incubated with a 1:5 molar excess of serpin and residual activity was determined by cleavage of fluorescent substrates. All assays were carried out at room temperature in 96-well plates in a total volume of 100 μL. Residual proteolytic activity was measured using a SpectraMax M3 Microplate Reader (Molecular Devices, Inc), using the appropriate buffer and synthetic fluorogenic peptide substrate: Cathepsin L, Z-FR-AMC (10 μM), 50 mM Na-Acetate, 100 mM NaCl, 1 mM EDTA, pH 5.5; Chymotrypsin, Z-AAPF-AMC (5 μM), PBS, 1 mg/ml BSA; Elastase, Met-O-Suc-AAPV-AMC (10 μM), 50 mM Tris, 120 mM NaCl, pH 8.0, 1 mg/ml BSA; Furin, Boc-RVRR-AMC (50 μM) 20 mM Tris, 1 mM CaCl2), 0.5% Brij-35, pH 9; TMPRSS2, Boc-QAR-AMC (80 μM), PBS; Trypsin, Z-FR-AMC (10 μM), 50 mM Tris, 0.2 mM DTT, 1 mg/ml BSA. The excitation and emission wavelengths used were 380 nm and 460 nm respectively. All assays were performed in triplicate.

TMPRSS2 [1] = target: T2, TMPRSS2 (Homo sapiens, UniProt O15393); type: biochemical; parameters: purchased Cusabio Technology
T2 sequence (O15393 whole entry): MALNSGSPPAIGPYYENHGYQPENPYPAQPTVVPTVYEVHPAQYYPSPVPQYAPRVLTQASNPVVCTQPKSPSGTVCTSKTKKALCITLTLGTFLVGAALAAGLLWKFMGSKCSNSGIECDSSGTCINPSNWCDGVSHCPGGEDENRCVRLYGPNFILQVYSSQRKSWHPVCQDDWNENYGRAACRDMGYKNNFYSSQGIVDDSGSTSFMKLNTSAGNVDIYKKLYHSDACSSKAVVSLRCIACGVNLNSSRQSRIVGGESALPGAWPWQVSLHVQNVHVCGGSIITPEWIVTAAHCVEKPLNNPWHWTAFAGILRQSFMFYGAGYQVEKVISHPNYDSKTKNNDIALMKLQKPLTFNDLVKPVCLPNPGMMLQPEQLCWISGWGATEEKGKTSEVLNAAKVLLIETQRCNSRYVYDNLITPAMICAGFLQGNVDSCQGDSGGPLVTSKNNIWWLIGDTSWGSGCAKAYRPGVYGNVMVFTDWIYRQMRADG

TMPRSS2 [2] = target: T2, TMPRSS2; experiment: Kinetic analysis of TMPRSS2 inhibition under pseudo first-order conditions; type: biochemical; parameters: purchased Cusabio Technology; settings: room temperature, TMPRSS2 0.1 μM
Procedure: For kinetic analysis of TMPRSS2 inhibition, second order inhibition rate constants were determined under pseudo first-order conditions using a range of serpin concentrations, and with TMPRSS2 buffer and substrate detailed above. Reactions were performed at room temperature and residual activity was determined at intervals over a 10 min incubation with a molar excess of serpin over protease. Concentration ranges were 0.12 to 0.44 μM for B3-TMP and 1.0 to 4 μM for A1AT. The apparent first order rate constant kobs for each concentration was calculated from the slope of the natural log of residual activity over time (−kobs). These values were plotted against inhibitor concentration and linear regression analysis of this plot gave the second order inhibition rate constant k2, with standard error determined.

[3] = system: SARS-CoV-2 Spike pseudoparticles; type: cell-based

Molecule	inhibition of SARS-CoV-2 Omicron BA.5 infection (in words) (Omicron BA.5 SARS-CoV-2)	CatL inhibition (Cathepsin L (CatL)) [%]	selectivity for TMPRSS2 versus elastase, trypsin, chymotrypsin (in words) (TMPRSS2 [1])	second order inhibition rate constant k2 of TMPRSS2 inhibition (TMPRSS2 [2])	inhibition of pseudoparticle entry (in words) ([3]; 6.25 μM to 50 μM, A549-ACE2-TMPRSS2 cells)	inhibition of pseudoparticle entry ([3]; 12.5 μM, A549-ACE2-TMPRSS2 cells) [%]	inhibition of pseudoparticle entry ([3]; 50 µM) [%]
B1	greater inhibitor for both viral strains than WT-SerpinB3; also recorded: inhibit Omicron BA.5 infection to a greater extent than the B3-WT	81	better selectivity for TMPRSS2 than A1AT	(9±1.1)×10^3 M^−1 s^−1	reduce SARS-CoV-2 (D614G) pseudoparticle entry	70	90
B2	reductions in SARS-CoV-2 infection	95	–	–	–	–	–
